From patent publication US7157092B1, “Acyl pseudodipeptides, preparation method and pharmaceutical compositions containing same” (Om Pharma, priority 1998, dated 2007)

Tested on: ovalbumin
Test: Subcutaneous immunization with ovalbumin antigen: specific serum immunoglobulins (ELISA)
Format: in vivo, BALB/c mice
Settings: s.c. injections days 0 and 14, ovalbumin 50 μg, adjuvant 50 μg per injection, ± SD
Procedure: To this end, 50 BALB/c mice (females, aged 8 weeks at the beginning of treatment) were divided into 5 groups as follows:
Antigen: An ovalbumin stock solution is prepared at a concentration of 0.5 mg/ml in 0.9% NaCl.
The negative control consists of a 0.9% NaCl solution without antigen.
Antigen-Adjuvant mixture: Adjuvants are allowed to stand for 20 minutes at 37° C. before vortex treatment for 3 minutes. Then the antigen and (0.9%) NaCl are added as specified in the above Table, and the antigen/adjuvant mixture is vortexed briefly before placing it on a rotary stirrer for 15 minutes at room temperature, then the whole mixture is vortexed for 3 minutes.
Immunization regimen: Injections are scheduelled on days 0 and 14. The mixtures stated in the preceeding table are administered by subcutaeous route (75 μl on the side, 150 μl in total per animal). Blood sampling is scheduelled on days 14 and 28 (orbital puncture).
Assay for anti-ovalbumin immunoglobulins: The following serum Immunolglobulins which are specifically directed against ovalbumin are assayed in duplicate by ELISA: IgG1, IgG2a, and IgM. Briefly stated, microtiter plates (NUNC Immunoplate, Roskilde, DK) are incubated (overnight coating) at 40C together with 100 μl ovalbumin (0.5 μg) in bicarbonate buffer pH 9.6). After washing with 0.5% Tween-20 (Merck Hohenbrunn, D), sera are diluted 50-, 200- and 800-fold (diluting solution: phosphate buffered saline (PBS)+1% bovine serum albumin (BSA, Sigma, St. Louis, Mo., USA)+0.02% Tween-20)). 100 μl of each dilute serum sample are added to the wells. Incubation lasts 45 minutes at 37° C.
After a second washing step, IgG1, IgG2a and IgM specifically directed to ovalbumin are incubated for 30 minutes at 37° C. together with 100 μl of anti-IgG1 antibodies (anti-mouse rat antibody)-peroxydase conjugate (Serotec, Oxford, UK), IgG2a-peroxydase conjugate (Pharmingen, San Diego, Calif., USA) and IgM-biotin conjugate (Pharmingen, San Diego, Calif., USA), diluted beforehand in PBS/BSA/Tween buffer (250-, 1000-, 500-fold dilutions, respectively). For IgM, after an extra washing step, a 3rd incubation step is required (30 min. at 37° C.) with a 1:100 dilute solution of streptavidin-peroxydase conjugate (Dako, Glostrup, DK).
After the washing step, 100 μl of a phenylene 1,2-diamine solution (OPD, Merck, Darmstadt, GFR) are added to detect peroxydase-coupled anti-IgG1 and anti-IgG2 secondary antibodies (whereas for IgM, the reagent being used is 3′, 3′, 5′,5′-tetramethylbenzidine (TMB, Sigma, St. Louis, Mo., USA). After a 20 minute incubation period at room temperature, the reaction is stopped by adding 100 μl of 2N H2SO4. Absorbance values are read at 490 nm with a Bio-Rad 3550 model plate reader
Results of each reading at 490 nm are given in arbitrary units (A.U.) per ml. This is achieved by comparing each sample with a standard prepared from different dilutions of a sample pool collected from group B at day 28 (animals injected with ovalbumin alone). As clearly understood by this term, the sample pool diluted 50-fold is at a concentration of 1000 A.U./ml. Individual results are then corrected for the corresponding dilution factor (50, 200, or 800 times). Only the mean values of each group and the standard deviation (SD) are herein reported.

B1: ova: ovalbumin antigen (Fluka Chemie), injected alone (protein, UniProt P01012 2-386, looked up)
Ovalbumin: GSIGAASMEFCFDVFKELKVHHANENIFYCPIAIMSALAMVYLGAKDSTRTQINKVVRFDKLPGFGDSIEAQCGTSVNVHSSLRDILNQITKPNDVYSFSLASRLYAEERYPILPEYLQCVKELYRGGLEPINFQTAADQARELINSWVESQTNGIIRNVLQPSSVDSQTAMVLVNAIVFKGLWEKAFKDEDTQAMPFRVTEQESKPVQMMYQIGLFRVASMASEKMKILELPFASGTMSMLVLLPDEVSGLEQLESIINFEKLTEWTSSNVMEERKIKVYLPRMKMEEKYNLTSVLMAMGITDVFSSSANLSGISSAESLKISQAVHAAHAEINEAGREVVGSAEAGVDAASVSEEFRADHPFLFCIKHIATNAVLFFGRCVSP
Immunoglobulins specifically raised against ovalbumin of IgG1 subclass (Day 14): 728 ± 589 Arbitrary units/ml | Immunoglobulins specifically raised against ovalbumin of IgG2a subclass (Day 14): 5201 ± 1880 Arbitrary units/ml | Immunoglobulins specifically raised against ovalbumin of IgM subclass (Day 14): 19423 ± 13778 Arbitrary units/ml | Immunoglobulins specifically raised against ovalbumin of IgG1 subclass (Day 28): 47743 ± 46294 Arbitrary units/ml | Immunoglobulins specifically raised against ovalbumin of IgG2a subclass (Day 28): 73162 ± 107954 Arbitrary units/ml | Immunoglobulins specifically raised against ovalbumin of IgM subclass (Day 28): 47998 ± 34035 Arbitrary units/ml
